Measurements from article PMC6238592.

Target: human FACT (FAcilitates Chromatin Transcription), full length (human) (UniProt Q9Y5B9)
Assay: AUC; SV-AUC, absorbance optics; 1.8 μM FACT incubated with histones at the indicated molar ratios for 10 min at room temperature; 150 mM NaCl, 20 mM Tris pH 8.0, 1 mM TCEP; 20°C

stoichiometry N (H2A–H2B per FACT): 1
Substance: histone H2A–H2B dimer (no label stated) (from UniProt P06897 1-130; P02281 1-126) (complex)
